Test [1] concerns the target bacteriophage λ terminase protomer (TerL•TerS2) (bacteriophage λ) (UniProt P03708). The test can be described thus: AUC.
The target is the same in test [2]. Put plainly: native MS.
The target is the same in test [3]. Put plainly: AUC. The source holds these as a separate data set.
The target is the same in test [4]. Put plainly: SAXS.
Test [5] shares this target. Put plainly: cryo-EM 2D class averages.

Turning to “bacteriophage λ terminase protomer (TerL•TerS2) (from UniProt P03708 1-641; P03707 1-181) (complex)”, the stoichiometry N in test [1] was 4.5 S; in test [2] it was 5 protomers; in test [3] it was 3.3 to 4.4 protomers; in test [4] it was 4.4 protomers; in test [5] it was 5.

Values taken from paper doi:10.1101/2022.09.25.509378.
